B1: SSE-2: synthetic super-enhancer ID0109_ID4328_ID0876_ID2339, SEQ ID NO: 65 (nucleic acid)
DNA: GAAATTGGATCCTGAGGAGAATGTCACCACCTCTTTGACAATAACTAGCTTTCAGAGCTGAACACAGTGAATCTGGATACTGTGTATATGTTTAAATGAGTTAGGAAATGACATCACATTATTTATTTCTTCTTTTGTGACTTAGTAAATTGACTTGGCCTACAATCTATTCTCCATAGTCATCAGAGTTTCTTTAAAGGCACGGTTCAGACAATGGCACCCTCTGTTCCAAACCCTCCAGGGCTTCCTATTTCACTTAGCATAAAAACCAAAGTCCTCACAATGACCGACAAGTCTTCACACAATGTGCCCCTTCATTGGAGCAGGCAGTCATTTGGTTCCCTTCTCTGAATGCATTGGCTCTGATCCACGGCGCCTCAGGAAGTGAAAGGGAGCAGGCAGTGAGGCCAAGCCATGAATGTTGGGCCCTTTTCTTAGAAAACAAAGGGTTCACTTTAGGCTAGGAGGAAACATCCGGGGGTCGGCGGAACTGAGTCTCCTTTGTGGAGCCCCTCATTTGCATGATAAACCCCGGGGACAAAGTGTGTTCTTGTTACTTGGACTGTTTCTTGGAAACTGCTGCTACCTGGAGCGAGTGAACACAGGGCAAGTATTCTCGCCCACAGCAACGTGTCATTGA
B2: SSE-3: synthetic super-enhancer ID0876_ID2339_ID1737_ID0663, SEQ ID NO: 66 (nucleic acid)
DNA: GAGCAGGCAGTCATTTGGTTCCCTTCTCTGAATGCATTGGCTCTGATCCACGGCGCCTCAGGAAGTGAAAGGGAGCAGGCAGTGAGGCCAAGCCATGAATGTTGGGCCCTTTTCTTAGAAAACAAAGGGTTCACTTTAGGCTAGGAGGAAACATCCGGGGGTCGGCGGAACTGAGTCTCCTTTGTGGAGCCCCTCATTTGCATGATAAACCCCGGGGACAAAGTGTGTTCTTGTTACTTGGACTGTTTCTTGGAAACTGCTGCTACCTGGAGCGAGTGAACACAGGGCAAGTATTCTCGCCCACAGCAACGTGTCATTGACAACGTTTTTGGCAGATGCAGCTCTTTCTGAACAGTAAGTCATTGTTGAGTGACATGAATAGGACGAGAGCTACAGAAAATGAAGGTTTCAAAAGATTGTCTAAAACAAAAGTCCTTTCAGTCCCGTATTCAGAGTTATAAATTCCGATTAGCCAAGGAAGCTCTGAGTCTAAATACCAGCAAAGCTCAGCCCCTGCAAGTGGGGACGAATTATTTGAAAGGTCATCCTAGAGACACTGAACAAAGGGCCTCTAGCAGCT
B3: SSE-1: synthetic super-enhancer ID1101_ID2904_ID0109_ID4328, SEQ ID NO: 64 (nucleic acid)
DNA: GTGAGTGTGACTCACATGCTGGCATCAGAGCCCCTCTTAGAGCTTAGAACACTGGGCCTCTGTCAGGCAAAGAAAAGGAGTCCCTATGAATAGCCATCTCCACAAATAGCAGTTACTGTCACTTCTTAAAAGACACAAGCATGGCTGGAGACCGGCACTGTGCATGTTCTTGGGAAAAAGTGGTATTTAATGAAGGCGCTTTGAGCTGAATCAAAGAGCCTCATTCTTCTGAAAGTCCTTCTTCCTAGTCTCTGCATCCGGCTCCTATCAAAGGAAATCCACAGCTTTGGCTTTTCGTTGCTGTTGTCATGGAAATCGTTGAAATTGGATCCTGAGGAGAATGTCACCACCTCTTTGACAATAACTAGCTTTCAGAGCTGAACACAGTGAATCTGGATACTGTGTATATGTTTAAATGAGTTAGGAAATGACATCACATTATTTATTTCTTCTTTTGTGACTTAGTAAATTGACTTGGCCTACAATCTATTCTCCATAGTCATCAGAGTTTCTTTAAAGGCACGGTTCAGACAATGGCACCCTCTGTTCCAAACCCTCCAGGGCTTCCTATTTCACTTAGCATAAAAACCAAAGTCCTCACAATGACCGACAAGTCTTCACACAATGTGCCCCTTCATTG

test system: GSC7 cells; experiment: Nano-Glo Dual-Luciferase Reporter (Nanoglo DLR) enhancer assay in GSC7; format: cell-based, human
Text: We chose an arrayed library format, with 160 bp enhancer fragments individually cloned into separate plasmids and arrayed in 96 well plates. These 160 bp were synthesized as a single pool of oligos, then randomly cloned into the plasmid and isolated. 20 bp×2 were needed for PCR amplification of the pool and so a library of 200 bp fragments was synthesized (Twist Biosciences). To meet our oligo synthesis strategy, ChIP-seq peaks expressed by GSCs were merged into a single oligo. This oligonucleotide pool was PCR-amplified (using limited cycles to reduce bias and ‘jackpot’ products meaning products which are easier to amplify will overtake the oligonucleotide pool) and cloned into the expression vector by an efficient Golden Gate reaction. 4579 individual plasmids were then randomly picked, isolated and plated as an arrayed plasmid DNA library on 96 well plates (×48). The bacterial colony picking and production of plasmid minipreps were supported by the Edinburgh Genome Foundry (S. Rosser). This library was then screened using the optimised Nanoglo DLR assay (Nano-Glo Dual-Luciferase Reporter Assay, Promega) in 384 well format. Each plate was transiently transfected together with PGK-FFLuc in a 1:10 ratio into GSC7 cells. 2 days later a Nanoglo DLR assay was performed and assayed on a plate reader.
Cells were seeded in 384 well plates using a multidrop and transfected the following day using the CyBio Felix. Two days later the experiment was terminated with a Nanoglo DLR assay and all hits with a fold change to mCMV greater than 10 were Sanger sequenced and mapped back to the genome.
(§1) Cells were seeded at the required density. The following day the transfection was carried out. For this the Plus reagent and Lipofectamine LTX (Life Technologies, 15338030) were each diluted in half the volume of Opti-MEM I Reduced-Serum Medium (further referred to as Optimem) (Life Technologies, 31985062). Following this step, the Plus reagent/Optimem premix was added to all DNA samples followed by the Lipofectamine LTX/Optimem premix. The transfection mix was incubated for 5 min at room temperature and then carefully dropped on the cells. Generally, no media change was carried out. Cells were analysed two days following transfection.
This assay consists of two steps. […] First, the Firefly Luciferase activity is measured which allows to normalise to transfection efficiency. In a second step, the activity of Nanoluc is determined which is the readout of the plasmid of interest. […] 20 μl cell lysate in 96 well format or 25 μl cell lysate in 384 well format was then transferred into the corresponding opaque white plate and luminescence was measured at for 0.1 s per well using the Ensight Multimode Plate Reader. […] Nanoluc activity was measured for 0.1 s per well, again using Ensight Multimode Plate Reader. […]

Molecule | activity compared with full CMV by Nanoglo DLR assay
B1 | higher than CMV
B2 | higher than CMV
B3 | higher than CMV

test system: GSC7 cells; experiment: Flow cytometry of mNGreen reporter in GSC7; format: cell-based, human
Method: as §1
For flow cytometry, cells were detached, pelleted and resuspended in an appropriate volume of flow cytometry buffer (1% BSA in PBS, v/v). Cells were stained with Draq7 (Abcam, ab109202, f.c. 0.1 μM) as a live/dead stain and analysed using the BD LSRFortessa cell analyser (4 lasers, BD Bioscience). Analysis of flow cytometry data was carried out in the FlowJo Analysis software (FlowJo, version 10.6.2).

Molecule | activity compared with full CMV by flow cytometry
B1 | higher than CMV
B2 | higher than CMV
B3 | higher than CMV

Source: patent US20240092847A1, “FUNCTIONAL NUCLEIC ACID MOLECULE AND METHOD” (The University Court of The University of Edinburgh, priority 2021, published 2024)
